Results as given in patent publication US20240043547A1 (NUMAB THERAPEUTICS, published 2024).
Read-outs that look alike come from different tables or passages of the source.

T1: human IL-31 (human, UniProt Q6EBC2 24-164, limits assumed)
T1 sequence (looked up): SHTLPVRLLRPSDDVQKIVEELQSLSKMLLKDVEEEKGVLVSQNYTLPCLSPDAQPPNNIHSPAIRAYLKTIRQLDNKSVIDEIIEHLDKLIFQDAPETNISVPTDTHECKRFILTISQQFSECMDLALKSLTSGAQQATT

T2: human IL-31-His (human, UniProt Q6EBC2 24-164)
T2 construct: form captured via anti-His tag antibody in the SPR of the scFvs (sections 1.8 and 2.4); also called hIL-31; not shown: His tag
T2 sequence (looked up): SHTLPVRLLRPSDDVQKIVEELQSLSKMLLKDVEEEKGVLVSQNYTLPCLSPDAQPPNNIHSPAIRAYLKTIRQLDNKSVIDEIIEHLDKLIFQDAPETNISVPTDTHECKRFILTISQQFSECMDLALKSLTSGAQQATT


Experiments:
human IL-31 [1] = biological target: T1, human IL-31; experiment: cell-based or functional assay
human IL-31 [2] = biological target: T1, human IL-31; experiment: cell-based or functional assay; remark: listed apart in the source
human IL-31 [3] = biological target: T1, human IL-31; experiment: competitive ELISA: IL-31RA coated, biotinylated IL-31 preincubated with the antibody, bound IL-31 detected with streptavidin-HRP; blocked interaction IL-31/IL-31RA
human IL-31 [4] = biological target: T1, human IL-31; experiment: cell-based or functional assay; remark: listed apart in the source
human IL-31 [5] = biological target: T1, human IL-31; experiment: competitive ELISA: IL-31RA coated, biotinylated IL-31 preincubated with the antibody, bound IL-31 detected with streptavidin-HRP; blocked interaction IL-31/IL-31RA; remark: listed apart in the source
human IL-31 [6] = biological target: T1, human IL-31; experiment: as above; remark: listed apart in the source
human IL-31 [7] = biological target: T1, human IL-31; experiment: cell-based or functional assay; remark: listed apart in the source
human IL-31 [8] = biological target: T1, human IL-31; experiment: cell-based or functional assay; remark: listed apart in the source
human IL-31 [9] = biological target: T1, human IL-31; experiment: cell-based or functional assay; remark: listed apart in the source
human IL-31-His [10] = biological target: T2, human IL-31-His; experiment: SPR (Biacore T200), human IL-31-His captured via anti-His antibody, scFv as analyte
Procedure: (§1) After each analyte injection cycle the sensor chip was regenerated and new antigen was captured. The scFvs were measured using a dose response multi-cycle kinetic assay in a high-throughput mode with two concentrations (30 and 10 nM) diluted in running buffer. Obtained sensorgrams were fitted using a 1:1 binding model.

human IL-31 [11] = biological target: T1, human IL-31; experiment: cell-based or functional assay; remark: listed apart in the source
cynomolgus IL-31-His [12] = biological target: T3, cynomolgus IL-31-His (cynomolgus monkey (Macaca fascicularis)); experiment: SPR (Biacore T200), cynomolgus IL-31-His captured via anti-His antibody, scFv as analyte
T3 construct: extracellular domain; also called cynomolgus monkey IL-31; cyno IL-31
Procedure: as §1

human IL-31 [13] = biological target: T1, human IL-31; experiment: competitive ELISA: IL-31RA coated, biotinylated IL-31 preincubated with scFv
Source text: For this purpose, IL-31RA was coated on the ELISA plate.
Potency of the two humanized scFvs was further determined using a competitive ELISA.

cynomolgus IL-31-His [14] = biological target: T3, cynomolgus IL-31-His; experiment: SPR (Biacore T200), cynomolgus IL-31-His captured via anti-His antibody, scFv as analyte; remark: listed apart in the source
Procedure: as §1
(§2) The scFvs were measured using a dose response multi-cycle kinetic assay in a high-throughput mode with two concentrations (30 and 10 nM) diluted in running buffer. Obtained sensorgrams were fitted using a 1:1 binding model.

human IL-31-His [15] = biological target: T2, human IL-31-His; experiment: SPR (Biacore T200), human IL-31-His captured via anti-His antibody, scFv as analyte; remark: listed apart in the source
Procedure: as §1, §2

human IL-31 [16] = biological target: T1, human IL-31; experiment: cell-based or functional assay; remark: listed apart in the source

IC50 [ng/ml], neutralization of hIL-31-induced signaling in IL-31RA/OSMR dimerization assay (human IL-31 [11]) [ng/mL]	Kd (cynomolgus IL-31-His [14]) [nM]	koff (cynomolgus IL-31-His [14]) [s⁻¹]	kon (cynomolgus IL-31-His [14]) [M⁻¹ s⁻¹]	Kd (human IL-31-His [15]) [nM]	koff (human IL-31-His [15]) [s⁻¹]	kon (human IL-31-His [15]) [M⁻¹ s⁻¹]	Binder	other results
							BMS-981164 (antibody, V domains shown) VH: QVQLVQSGAEVKKPGASVKVSCKASGYTLTRYWMQWVRQAPGQGLEWMGAIYPGDGDTRYSQKFQGRVTLTADKSTSTAYMELSSLRSEDTAVYYCAFPDGYYAAPYGMDYWGQGTLVTVSS VL: DIQMTQSPSSLSASVGDRVTITCRASGNIHNYLAWYQQKPGKVPKLLIYNAKTLADGVPSRFSGSRSETQYSLTISSLQPEDVATYYCQHFWSTPWTFGQGTKVEIKR	IC50 (read off the curve) (human IL-31 [1]): ~10 ng/mL; IC50 (read off the curve) (human IL-31 [2]): ~8 ng/mL; IC50 (read off the curve) (human IL-31 [3]): ~10 ng/mL; IC50 (read off the curve) (human IL-31 [4]): ~10 ng/mL; IC50 (read off the curve) (human IL-31 [5]): ~10 ng/mL; IC50 (read off the curve) (human IL-31 [6]): ~10 ng/mL; IC50 (read off the curve) (human IL-31 [7]): ~10 ng/mL; IC50 (read off the curve) (human IL-31 [8]): ~10 ng/mL; IC50 (read off the curve) (human IL-31 [9]): ~7 ng/mL
8.08	1.17	0.000587	501000	1.13	0.000653	579000	PRO1643 (scFv, scFv (VL-linker-VH), full graft of rabbit clone 50-09-D07; also called 50-09-D07-sc03; 50-09-D07-5c03) scFv: AFQLTQSPSSLSASVGDRVTITCQASQSIDSWLAWYQQKPGKPPKLLIYQASKLASGVPSRFSGSGSGTDYTLTISSLQPEDFATYYCQTYYGGGHIGWGFGTGTKVTVLGGGGGSGGGGSGGGGSGGGGSQSQLVESGGGLVQPGGSLRLSCAASGFSFSANYWICWVRQAPGKGLEWIVCIYIGSRADTYYAPWAKGRFTISKDNSKNTVYLQMNSLRAEDTAVYFCARFSSGIYDLDRFFLWGQGTLVTVSS	Kd (human IL-31-His [10]): 0.505 nM; koff (human IL-31-His [10]): 0.000447 s⁻¹; kon (human IL-31-His [10]): 884000 M⁻¹ s⁻¹; Kd (cynomolgus IL-31-His [12]): 0.583 nM; koff (cynomolgus IL-31-His [12]): 0.000444 s⁻¹; kon (cynomolgus IL-31-His [12]): 761000 M⁻¹ s⁻¹; IC50 (human IL-31 [13]): 4.58 ng/mL; IC50 [ng/ml], neutralization of hIL-31-induced signaling in IL-31RA/OSMR dimerization assay (human IL-31 [16]): 11.1 ng/mL
				2.89	0.00246	852000	PRO1902 (scFv, scFv (VL-linker-VH); variant of PRO1643 with VH Y59S (AHo numbering); also called 50-09-D07-sc06; 50-09-D07-5c06) scFv: AFQLTQSPSSLSASVGDRVTITCQASQSIDSWLAWYQQKPGKPPKLLIYQASKLASGVPSRFSGSGSGTDYTLTISSLQPEDFATYYCQTYYGGGHIGWGFGTGTKVTVLGGGGGSGGGGSGGGGSGGGGSQSQLVESGGGLVQPGGSLRLSCAASGFSFSANYWICWVRQAPGKGLEWIVCISIGSRADTYYAPWAKGRFTISKDNSKNTVYLQMNSLRAEDTAVYFCARFSSGIYDLDRFFLWGQGTLVTVSS	
				1.22	0.000638	524000	PRO1903 (scFv, scFv (VL-linker-VH); variant of PRO1643 with VL D32E (AHo numbering); also called 50-09-D07-sc07; 50-09-D07-5c07) scFv: AFQLTQSPSSLSASVGDRVTITCQASQSIESWLAWYQQKPGKPPKLLIYQASKLASGVPSRFSGSGSGTDYTLTISSLQPEDFATYYCQTYYGGGHIGWGFGTGTKVTVLGGGGGSGGGGSGGGGSGGGGSQSQLVESGGGLVQPGGSLRLSCAASGFSFSANYWICWVRQAPGKGLEWIVCIYIGSRADTYYAPWAKGRFTISKDNSKNTVYLQMNSLRAEDTAVYFCARFSSGIYDLDRFFLWGQGTLVTVSS	
8.21	1.07	0.000594	554000	0.907	0.000599	661000	PRO1900 (scFv, scFv (VL-linker-VH); variant of PRO1643 with VH L12R, V103T, L144Q (AHo numbering); also called 50-09-D07-sc04; 50-09-D07-5c04) scFv: AFQLTQSPSSLSASVGDRVTITCQASQSIDSWLAWYQQKPGKPPKLLIYQASKLASGVPSRFSGSGSGTDYTLTISSLQPEDFATYYCQTYYGGGHIGWGFGTGTKVTVLGGGGGSGGGGSGGGGSGGGGSQSQLVESGGGRVQPGGSLRLSCAASGFSFSANYWICWVRQAPGKGLEWIVCIYIGSRADTYYAPWAKGRFTISKDNSKNTVYLQMNSLRAEDTATYFCARFSSGIYDLDRFFLWGQGTQVTVSS	
				0.956	0.000565	591000	PRO1901 (scFv, scFv (VL-linker-VH); variant of PRO1643 with VH L12S, V103T, L144Q (AHo numbering); also called 50-09-D07-sc05) scFv: AFQLTQSPSSLSASVGDRVTITCQASQSIDSWLAWYQQKPGKPPKLLIYQASKLASGVPSRFSGSGSGTDYTLTISSLQPEDFATYYCQTYYGGGHIGWGFGTGTKVTVLGGGGGSGGGGSGGGGSGGGGSQSQLVESGGGSVQPGGSLRLSCAASGFSFSANYWICWVRQAPGKGLEWIVCIYIGSRADTYYAPWAKGRFTISKDNSKNTVYLQMNSLRAEDTATYFCARFSSGIYDLDRFFLWGQGTQVTVSS	
